Experimental data: patent US20190336615A1 (SILVERBACK THERAPEUTICS, published 2019)

B1: parental anti-CD40 monoclonal antibody (SBT-040G1) (antibody, human IgG1, kappa)
heavy: not shown
light: DIQMTQSPSSVSASVGDRVTITCRASQGIYSWLAWYQQKPGKAPNLLIYTASTLQSGVPSRFSGSGSGTDFTLTISSLQPEDFATYYCQQANIFPLTFGGGTKVEIKRTVAAPSVFIFPPSDEQLKSGTASVVCLLNNFYPREAKVQWKVDNALQSGNSQESVTEQDSKDSTYSLSSTLTLSKADYEKHKVYACEVTHQGLSSPVTKSFNRGEC
notes: Human IgG1 anti-CD40; also called Parental anti-CD40 antibody; Parental Anti-CD40 Antibody
B2: parental anti-HER2 monoclonal antibody (SBT-050G1), pertuzumab (antibody, human IgG1, kappa)
heavy: not shown
light: not shown
notes: also called Parental anti-HER2 antibody; Parental Anti-HER2 Antibody

How the values were obtained:
[1] = biological target: T1, human HER2 expressed on transiently transfected CHO cells (human, UniProt P04626 23-1255); assay: statement in the macrophage ADCC assay with HER2-expressing CHO cells
T1 construct: whole, on cells; also called HER2-expressing CHO cells; CHO-HER2
Description: Monocyte-derived macrophages were generated by culturing monocytes for 7 days in the presence of GM-CSF. […] After 24 hours, CHO viability was assessed by flow cytometry as a readout of ADCC activity.
Monocytes were isolated from human peripheral blood mononuclear cells (PBMCs) using magnetic bead-based negative selection and cultured 7 days in the presence of GM-CSF to generate macrophages. A CHO cell line was engineered to overexpress human HER2 using standard transient transfection methods and used in assays 2 days after transfection. […] After 24 hours, CHO frequency was assessed by flow cytometry as a readout of ADCC activity.

[2] = biological target: T2, monomeric human CEA extracellular domain (CEA ECD; CEACAM5) (human, UniProt P06731 35-685); assay: BLI (Octet), antibody on anti-human Fc sensor, monomeric ECD analyte, 1:1 model
T2 construct: extracellular domain; not tied to the assay protein; also called CEACAM5 (CEA)
T2 sequence (looked up): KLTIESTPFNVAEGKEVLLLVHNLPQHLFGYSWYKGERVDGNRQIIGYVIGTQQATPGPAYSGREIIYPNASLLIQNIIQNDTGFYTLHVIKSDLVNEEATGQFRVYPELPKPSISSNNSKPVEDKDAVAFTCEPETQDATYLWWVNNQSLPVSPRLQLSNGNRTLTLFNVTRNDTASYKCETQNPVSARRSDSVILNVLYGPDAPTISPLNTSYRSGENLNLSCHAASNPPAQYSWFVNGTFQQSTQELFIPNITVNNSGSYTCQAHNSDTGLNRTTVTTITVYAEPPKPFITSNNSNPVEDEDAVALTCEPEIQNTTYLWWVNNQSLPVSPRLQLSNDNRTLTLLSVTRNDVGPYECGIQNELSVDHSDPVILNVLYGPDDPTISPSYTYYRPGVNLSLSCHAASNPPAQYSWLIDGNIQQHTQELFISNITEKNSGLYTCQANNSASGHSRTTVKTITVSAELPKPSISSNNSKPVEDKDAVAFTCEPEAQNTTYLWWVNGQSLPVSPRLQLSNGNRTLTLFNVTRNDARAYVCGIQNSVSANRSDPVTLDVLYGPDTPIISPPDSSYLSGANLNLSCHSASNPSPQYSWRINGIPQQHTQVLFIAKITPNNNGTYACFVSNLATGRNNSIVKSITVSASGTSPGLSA
Description: (§1) The Octet systems use propriety BLI to analyze biomolecular interaction. […] Data were analyzed using Octet Data Analysis Software 9.0 (ForteBio) and fitted to the 1:1 binding model. Equilibrium dissociation constants (KD) were calculated by the […].

[3] = biological target: T3, monomeric human HER2 extracellular domain (HER2 ECD) (human, UniProt P04626 23-652); assay: as above
T3 construct: extracellular domain; not tied to the assay protein; also called Hu Her2
Excerpt: (§2) The Octet systems use propriety BLI to analyze biomolecular interaction.

[4] = biological target: T4, monomeric human DEC205 extracellular domain (DEC205 ECD) (human, UniProt O60449 28-1666); assay: as above
T4 construct: extracellular domain; none tied to the assay protein
Description: as §1

[5] = biological target: T5, monomeric human CD40 extracellular domain (CD40 ECD) (human, UniProt P25942 21-193); assay: as above
T5 construct: extracellular domain; it is not tied to the assay protein; also called Hu CD40
Excerpt: as §2

T5 sequence (P25942 21-193): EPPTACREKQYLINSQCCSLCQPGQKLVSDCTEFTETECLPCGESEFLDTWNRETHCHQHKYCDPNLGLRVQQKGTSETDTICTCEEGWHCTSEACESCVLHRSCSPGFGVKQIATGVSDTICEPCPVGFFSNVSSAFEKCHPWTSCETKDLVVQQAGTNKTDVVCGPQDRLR
T4 sequence (O60449 28-1666): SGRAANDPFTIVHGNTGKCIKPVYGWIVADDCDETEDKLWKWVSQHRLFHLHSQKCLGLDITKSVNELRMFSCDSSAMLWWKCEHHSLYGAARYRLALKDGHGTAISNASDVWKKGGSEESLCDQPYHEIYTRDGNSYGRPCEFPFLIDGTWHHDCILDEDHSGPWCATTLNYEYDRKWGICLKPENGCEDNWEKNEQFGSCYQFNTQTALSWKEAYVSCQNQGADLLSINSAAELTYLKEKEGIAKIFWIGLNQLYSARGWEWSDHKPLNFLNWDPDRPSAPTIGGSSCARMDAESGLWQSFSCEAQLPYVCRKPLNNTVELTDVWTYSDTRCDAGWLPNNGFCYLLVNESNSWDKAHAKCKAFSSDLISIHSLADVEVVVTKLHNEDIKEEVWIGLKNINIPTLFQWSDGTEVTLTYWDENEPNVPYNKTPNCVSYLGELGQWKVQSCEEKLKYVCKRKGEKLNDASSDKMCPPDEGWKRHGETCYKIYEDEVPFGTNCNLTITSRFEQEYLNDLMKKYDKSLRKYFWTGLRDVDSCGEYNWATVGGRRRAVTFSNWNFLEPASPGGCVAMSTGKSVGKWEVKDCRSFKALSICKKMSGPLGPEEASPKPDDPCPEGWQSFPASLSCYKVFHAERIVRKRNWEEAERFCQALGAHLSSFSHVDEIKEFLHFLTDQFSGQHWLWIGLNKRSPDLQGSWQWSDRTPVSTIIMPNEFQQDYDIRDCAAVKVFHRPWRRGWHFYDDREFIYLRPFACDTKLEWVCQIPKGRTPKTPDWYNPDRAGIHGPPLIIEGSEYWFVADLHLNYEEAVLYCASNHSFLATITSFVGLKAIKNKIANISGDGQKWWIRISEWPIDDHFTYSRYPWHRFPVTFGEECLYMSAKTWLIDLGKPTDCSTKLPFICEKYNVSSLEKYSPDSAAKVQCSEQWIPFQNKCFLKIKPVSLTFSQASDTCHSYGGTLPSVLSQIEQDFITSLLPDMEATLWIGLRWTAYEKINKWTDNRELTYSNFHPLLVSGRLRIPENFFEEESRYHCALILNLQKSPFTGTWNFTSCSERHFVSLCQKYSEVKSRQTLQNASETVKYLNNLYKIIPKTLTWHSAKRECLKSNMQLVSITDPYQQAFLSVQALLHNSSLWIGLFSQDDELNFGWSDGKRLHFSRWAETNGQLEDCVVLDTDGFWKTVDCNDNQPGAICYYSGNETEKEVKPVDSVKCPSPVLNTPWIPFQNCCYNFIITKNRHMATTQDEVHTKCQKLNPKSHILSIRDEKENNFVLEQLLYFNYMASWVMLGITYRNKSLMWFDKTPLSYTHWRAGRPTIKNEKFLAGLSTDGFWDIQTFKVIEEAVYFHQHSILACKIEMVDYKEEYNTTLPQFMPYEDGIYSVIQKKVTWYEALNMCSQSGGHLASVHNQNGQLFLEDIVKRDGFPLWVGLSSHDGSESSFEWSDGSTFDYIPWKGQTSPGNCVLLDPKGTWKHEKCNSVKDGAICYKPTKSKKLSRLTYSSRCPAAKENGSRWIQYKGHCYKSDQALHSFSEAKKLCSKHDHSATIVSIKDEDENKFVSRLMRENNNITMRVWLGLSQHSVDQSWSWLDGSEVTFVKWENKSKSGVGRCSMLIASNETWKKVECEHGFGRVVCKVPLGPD

Binder | binding result [1] | binding result [2] | binding result [3] | binding result [4] | binding result [5]
B1 | no binding | no binding (tested: 1.2 nM to 300 nM) | no binding (tested: 1.2 nM to 300 nM) |  | 
B2 |  |  |  | no binding (tested: 1.2 nM to 300 nM) | no binding (tested: 1.2 nM to 300 nM)
